This data set in a line: soluble on expression in E. coli; label from the status in PepcDB or PDB records.
Consider “MSIALLAAATSSMAQSLDKMNWLNEPQQWEIKEGKALVMDVPAKTDFWRISHYGFTVDDGPFYYATYGGEFEVKVKITGNYVTTFDQMGLMLRIDHENWIKAGVEYVDGKQNVSAVVTHRTSDWSVVQLPDAPRSLWIKAVRRLDAVEIFFSRDDKEYTMIRTCWLQDNCPVMVGLMGACPDGKGFTATFEEFKVTPLADQRRLEWAKKQADKLEHHHHHH”, for which the “soluble on expression in E. coli” value was “not soluble”. With “AHHHHHHGSIVPALIGSLPRPIGLAKKLEQYYIGRLDERKLEEAYREYTRRAFEKLRDAKIKVITDGLYRWDDIFNPFIRFIDGIEVNGLFKFYENNFFYRSPVVRGEIALKENPIPEWISIAQEIKEDVYPEATLKAVLPGPVTLAYHSINEYYKTLTDLAEAYAQVIGELIKELDVKIVELQEPSLAAEISEATKNIEDRVDKEVAKNIIEDLGRIKKLWVVTYFGTPQVLPEGVILNVDLIEGSVPEEYSGEIGLGIVDARTTKMERADRLRDKIRKYLAKFETIYVTPNTLLDFLPESVAWKKLRLLGRLGGE” the entry was “not soluble”. Regarding “MKDVSTDAPVDSARIINGKFAFADTTKIENPVIKILSIHASKMGLEYRLPVVIENGTIKASIADVVCTEGTMLNERMQDFLLAIDAYSAACTDKPVEQIKSGFSELLKRYIEMNNDNVIGTYIQTAYQSSL”, the “soluble on expression in E. coli” value was “not soluble”. Take “MAHHHHHHMGIGYSQPLTVDTAGPPSSFSCARTVAHVAALTIQRSTQFLGGSTPPPSQSHTHAHHRKKHSHVRSEIACWASATLPSHSNLQRLRDPTTAVNRHSKRCKGEMVVRRMPSDGAGSHATVSENRAPSKRKLRGGFLFASSKWREHLTCNNQNGDTEDHWGLGEGEVRFHSWERILALSVCPLFLLPDGRDSGVTALCGHTEGHEGKERTAVGIMLRTVVKMGDESELTKGGSRGN”: the “soluble on expression in E. coli” value is “soluble”. Take “MAKQELGTKRVDPETGKKFYDLNRDPIVSPYTGISYPRSYFEVAAAEANSEEEVDTEELDTALEKSAFMLLEDDGDDPKDDDLPDLEDSDVDLGDDDDTFLSHDEDDEDDDVTDILGGGVSKDDDS”: the “soluble on expression in E. coli” value was “not soluble”. For the sequence “MSLTLADKVVYEEEIQKSRFIAKAAPVASEEEALAFLAENREPEATHNGHAYKIGLLYRFSDDGEPSGTAGRPILHAIEAQGLDRVAVLVVRYFGGVKLGAGGLVRAYGGVAAEALRRAPKVPLVERVGLAFLVPFAEVGRVYALLEARALKAEETYTPEGVRFALLLPKPEREGFLRALLDATRGQVALE”, the “soluble on expression in E. coli” value is recorded as “soluble”. For the sequence “MSELDFVRRGQDLKAYRALNWEGSFADYLRLLKEDPRPLRTSFQRVHDMILAHGVEEYTRFKEKLLHYRFFDDPFEGGKDAVFGLDKPLMRLVATLKAAAHRLGPERRILLLHGPVGSAKSTIARLLKKGLEAYSRTEEGKLFTFYWKTEEGPLPCPMHEEPLHLLPQDLREAFLEELRALHPDYPYPLEVEGDLCPVCRFQMREGLRKYEGDLAALLEHEVVVKRLVLSEKDRVGIGTFQPKDEKNQDSTELTGDINYRKVALYGSDSDPRAFNFDGELNIANRGIVEFIEILKLDVAFLYDLLTASQEHKIKSKKFAQTDIDEIVLGHTNEPEYRKLQANEYMEALRDRTIKIDVPYILRVSDEVRIYQRDFAKVRGKHIAPHTLEMAATWAVLTRLEPPKRAGLTLMQKLKLYDGKLLPGWTEEAVRELMGEAKREGLEGISPRYIQDKISNVLVTSEEPCINPFMVMNELEEGLKHHSLISDERTRERYRALLQEVKAEYAEIVKNEVQRAIAADEEALNRLFHNYIDHVKAYVLGEKVKNPYTGAPEPPNERLMRSIEERIDIPESRKDDFRREIMNYIGALALEGKPFTYKDNDRLRRALELKLFDDQKDTIRLSALVSGVVDPETQAKIDVVKARLIRDYGYCEHCASGVLEFAASLFARS”, the “soluble on expression in E. coli” value is on record as “soluble”. For the sequence “MRDVAIIGVKNTKFGELWERSLRDIVVEAGIGAIQDAGVSGKDIDALYIGNMSGGRFVEQEHIGALIADYSGLSRNLHVPATRVEAACASGGLALRQAIMAVASGYSEIVVAAGAEKMTDVGSEEASSALAAAADREWEGMAGATFPGLYAMIAKLHMHMYGTTGEQLAEVAVKNHKNGSFNPIAQYKNTITVDNVLNSIMVADPLHIFDCSPITDGASALVLAPAEIAHKYTDTPIYIKATAQASDTIALHDRRDITTLDATVMAAKRAYSMAKLTPEDIDLVEVHDCFTIAEICAIEDLGFAEKGKGGIVTENGETAIGGRIPVNTSGGLKACGHPVGATGIKQAVEIVTQLRGEAGKRQVEGAEYGMTHNVGGSGATAVVHIFSRGM”, the “soluble on expression in E. coli” value is reported as “not soluble”. With MQKPVMNPKQRIFIRGLGLPSSYVEAQKKRDEENAKN, the “soluble on expression in E. coli” value is on record as “not soluble”. In the case of “GEERKSSSWGRVDAMELPNYSRQLLQQLYTLCKEQQFCDCTISIGTIYFRAHKLVLAAASLLFKTLLDNTDTISIDASVVSPEEFALLLEMMYTGKLPVGKHNFSKIISLADSLQMFDVAVSCKNLLTSLVNCSVQGQVVRDVSAPSSETFRKEPEKPQVEILSSEGAGEPHSSPELAATPGGPVKAETEEAAHSVSQEMSVNSPTAQESQRNAETPAETPTTAEACSPSPPVQTFSEAKKTSTEPGCERKHYQLNFLLENEGVFSDALMVTQDVLKKLEMCSEIKGPQKEMIVKCFEGEGGHSAFQRILGKVREESLDVQTVVSLLRLYQYSNPAVKTALLDRKPEDVDTVQPKGSTEEGKTLSVLLLEHKEDLIQCVTQLRPIMESLETAKEEFLTGTEKRVILNCCEGRTPKETIENLLHRMTEEKTLTAEGLVKLLQAVKTTFPNLGLLLEKLQKSATLPSTTVQPSPDDYGTELLRRYHENLSEIFTDNQILLKMISHMTSLAPGEREVMEKLVKRDSGSGGFNSLISAVLEKQTLSATAIWQLLLVVQETKTCPLDLLMEEIRREPGADAFFRAVTTPEHATLETILRHNQLILEAIQQKIECKLFTSEEEHLAETVKEILSIPSETASPEASLRAVLSRAMEKSVPAIEICHLLCSVHKSFPGLQPVMQELAYIGVLTKEDGEKETWKVSNKFHLEANNKEDEKAAKEDSQPGEQNDQGETGSLPGQQEKEASASPDPAKKSFICKACDKSFHFYCRLKVHMKRCRVAKSKQVQCKECSETKDSKKELDKHQLEAHGAGGEPDAPKKKKKRLPVTCDLCGREFAHASGMQYHKLTEHFDEKPFSCEECGAKFAANSTLKNHLRLHTGDRPFMCKHCLMTFTQASALAYHTKKKHSEGKMYACQYCDAVFAQSIELSRHVRTHTGDKPYVCRDCGKGFRQANGLSIHLHTFHNIEDPYDCKKCRMSFPTLQDHRKHIHEVHSKEYHPCPTCGKIFSAPSMLERHMVTHVGGKPFSCGICNKAYQQLSGLWYHNRTHHPDVFAAQNHRSSKFSSLQCSSCDKTFPNTIEHKKHIKAEHADMKFHECDQCKELFPTPALLQVHVKCQHSGSQPFRCLYCAATFRFPGALQHHVTTEHFKQSETTFPCELCGELFTSQAQLDSHLESEHPKVMSTETQAAASQMAQVIQTPEPVAPTEQVITLEETQLAGSQVFVTLPDSQASQASSELVAVTVEDLLDGTVTLICGEAK”, the “soluble on expression in E. coli” value is reported as “soluble”. For “MSLGEKASKVLITSVPKCGTHLLKQVVLGAPFYKRGKWISLRESIREQIDNCHDQTIMVGHLEYSEEIVRYLNEKGIRRLFIYRDPRDMLISYVFYVKEIAPKHELRNYFLHVLGSDEERIMKLITGFHYQEENLTYGDLTLHYQPFLPWIEDKGTLALRFEDLVSSNECKEQTISKIADYLWHGSTFDQYNKAVLKKRMLENIRPSHSGTFRKGVSGDWKNYFTAQHKSVFKEVAGQLLIDLGYEKDMDEGHHHHHH”, the “soluble on expression in E. coli” value is “soluble”. With “MGSDKIHHHHHHMDYPQQHIKPYNEDGKKTEQVERMFDNIAHAYDKLNHTLSLGIDRSWRRKAIAWLRPFRPQHIMDVATGTGDFAILACRELNPDELIGTDISEGMMNVGREKVKKEGLSDKISFAREDCTSLSFADNRFDAITVAFGIRNFEDLDKGLSEMCRVLKPGGHLVILELTTPDRFPMKQLFAIYSKVVIPLLGKLLSKDNSAYHYLPDTIKVFPQGEVMKGVISKTGFGEVHFRRLTFGICTLYTATK” the entry was “not soluble”; with “ADPDTGVDTGAPYWTRPERMDKKLLAVPAANTVRFRCPAAGNPTPSISWLKNGREFRGEHRIGGIKLRHQQWSLVMESVVPSDRGNYTCVVENKFGSIRQTYTLDVLERSPHRPILQAGLPANQTAVLGSDVEFHCKVYSDAQPHIQWLKHVEVNGSKVGPDGTPYVTVLKSWISESVEADVRLRLANVSERDGGEYLCRATNFIGVAEKAFWLSVHGPRAAEEELVEADEAGSVHHHHHH”, “soluble”.
